The values that follow come from publication PMC8948145, “Piperonal synthase from black pepper (Piper nigrum) synthesizes a phenolic aroma compound, piperonal, as a CoA-independent catalysis” (Applied Biological Chemistry, 2022).

In this series the test system is O=C(O)/C=C/c1ccc2c(c1)OCO2. Kind of series: GC-MS quantitation of piperonal, Michaelis-Menten fit. Conditions: 50 µM to 1.6 mM substrate; no ATP, CoA-SH or NAD+; pH of the kinetic assay not printed in main text. In kind it is biochemical, Piper nigrum.

As usually defined, the Km is the substrate concentration at which the rate is half of its maximum. The kcat is the number of substrate molecules converted per active site and unit of time at saturation. In the case of “PnPNS (piperonal synthase; PnMCHL, 3,4-methylenedioxycinnamic acid hydratase-lyase) (Piper nigrum)”, the Km was 317.2 µM and the kcat was found to be 2.7 s⁻¹.
